Experiment [1] addresses Pcdh15 EC1-11 PICA (cis-dimer). Description: AFM force-clamp spectroscopy (single molecule); Cdh23 EC1-27-Fc dimer covalently on the cantilever, Pcdh15 EC1-11 PICA dimer covalently on the coverslip (sortagging); cantilever retracted 70 nm before clamping, clamping time 20 s; 25 mM HEPES, 100 mM NaCl, 50 mM KCl, 50 µM CaCl2; lifetimes from exponential fits of survival probability, Bell model fits.

Experiment [2] has as its target Cdh23 EC1-21. Description: AFM force-clamp spectroscopy (single molecule); Pcdh15 EC1-2 covalently on the cantilever, Cdh23 variants (EC1-5, EC1-10, EC1-21, EC1-27) covalently on the coverslip (sortagging, Mal-PEG2-NHS); contact 1-2 s, clamp 10 s; 25 mM HEPES, 100 mM NaCl, 50 mM KCl, 50 µM CaCl2; modified sliding-rebinding model fit with unfolding probabilities.
Experiment [3] has as its target full-length Cdh23 EC1-27 (27 domains). The description is as above.
Experiment [4] addresses Cdh23 EC1-10. The description is as above.
In experiment [5] the target is Cdh23 EC1-5. The description is as above.
The target in experiment [6] is Mouse Cdh23 EC1-2 (mouse) (UniProt Q99PF4). Description: AFM force-clamp spectroscopy (single molecule); Pcdh15 EC1-2 (WT or R113G) covalently on the cantilever, Cdh23 EC1-2 covalently on the coverslip (sortagging, Mal-PEG5000-NHS); contact 1-2 s, clamp 10 s; 25 mM HEPES, 100 mM NaCl, 50 mM KCl, 50 µM CaCl2; modified sliding-rebinding model fit of lifetime against force.
Chain of Mouse Cdh23 EC1-2 (mouse) (Q99PF4 24-228): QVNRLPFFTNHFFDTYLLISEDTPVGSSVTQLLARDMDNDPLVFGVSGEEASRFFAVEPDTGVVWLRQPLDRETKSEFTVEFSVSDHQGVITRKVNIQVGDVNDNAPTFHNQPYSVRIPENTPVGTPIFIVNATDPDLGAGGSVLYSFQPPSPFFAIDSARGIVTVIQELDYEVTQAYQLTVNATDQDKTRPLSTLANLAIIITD

For the substance “Cdh23 EC1-27 with the Fc region on its C-terminus (cis-dimer) (Fc fusion)”, in experiment [1], the intrinsic lifetime (τ0), low-force slip regime extrapolated to zero force is 31.8 s; the lifetime in the ideal-bond region (τ0) was 6.3 s; the lifetime of the short-lived component of the bi-exponential decay at high forces (>70 pN) is 1 s; the τ0 of the Bell fit of the second slip region was found to be 8.4 s.
“Mouse Pcdh15 EC1-2 (from UniProt Q99PJ1 27-259) (domain or fragment)”: the k+1 (intrinsic rate of reorganization, sliding-rebinding model) turned out to be 1.2 s⁻¹ in experiment [2], 0.5 s⁻¹ in experiment [3], 0.9 s⁻¹ in experiment [4] and 0.9 s⁻¹ in experiment [5]. For the same substance, the k+2 (intrinsic rate of rebinding, sliding-rebinding model) in experiment [2] was found to be 0.8 s⁻¹; in experiment [3] it was 0.5 s⁻¹; in experiment [4], 7.8 s⁻¹; in experiment [5] it was 29.4 s⁻¹. The k-1 (intrinsic off-rate at zero force, single bond of the sliding-rebinding model) in experiment [2] worked out at 0.35 s⁻¹; in experiment [3] it was 0.29 s⁻¹; in experiment [4], 0.39 s⁻¹; in experiment [5] it was 0.61 s⁻¹. Moreover, the zero-force lifetime in experiment [3] stood at 3.4 s; in experiment [5], 1.6 s.
In experiment [6], “Pcdh15 EC1-2 (R113G), Q99PJ1 27-259 (domain or fragment; other documents disagree on this pair)” registered a k+1 (intrinsic rate of reorganization, sliding-rebinding model) of 0.6 s⁻¹ and a k-1 (intrinsic off-rate at zero force, single bond of the sliding-rebinding model) of 0.3 s⁻¹.
